The record followed here is publication PMC5908291, “The JmjN domain as a dimerization interface and a targeted inhibitor of KDM4 demethylase activity” (Oncotarget, 2018).

Sequences and labels used below:
B1: KDM4C with a C-terminal YN or YC tag (enzyme, human, UniProt Q9H3R0 1-1056, looked up)
chain: MEVAEVESPLNPSCKIMTFRPSMEEFREFNKYLAYMESKGAHRAGLAKVIPPKEWKPRQCYDDIDNLLIPAPIQQMVTGQSGLFTQYNIQKKAMTVKEFRQLANSGKYCTPRYLDYEDLERKYWKNLTFVAPIYGADINGSIYDEGVDEWNIARLNTVLDVVEEECGISIEGVNTPYLYFGMWKTTFAWHTEDMDLYSINYLHFGEPKSWYAIPPEHGKRLERLAQGFFPSSSQGCDAFLRHKMTLISPSVLKKYGIPFDKITQEAGEFMITFPYGYHAGFNHGFNCAESTNFATVRWIDYGKVAKLCTCRKDMVKISMDIFVRKFQPDRYQLWKQGKDIYTIDHTKPTPASTPEVKAWLQRRRKVRKASRSFQCARSTSKRPKADEEEEVSDEVDGAEVPNPDSVTDDLKVSEKSEAAVKLRNTEASSEEESSASRMQVEQNLSDHIKLSGNSCLSTSVTEDIKTEDDKAYAYRSVPSISSEADDSIPLSSGYEKPEKSDPSELSWPKSPESCSSVAESNGVLTEGEESDVESHGNGLEPGEIPAVPSGERNSFKVPSIAEGENKTSKSWRHPLSRPPARSPMTLVKQQAPSDEELPEVLSIEEEVEETESWAKPLIHLWQTKSPNFAAEQEYNATVARMKPHCAICTLLMPYHKPDSSNEENDARWETKLDEVVTSEGKTKPLIPEMCFIYSEENIEYSPPNAFLEEDGTSLLISCAKCCVRVHASCYGIPSHEICDGWLCARCKRNAWTAECCLCNLRGGALKQTKNNKWAHVMCAVAVPEVRFTNVPERTQIDVGRIPLQRLKLKCIFCRHRVKRVSGACIQCSYGRCPASFHVTCAHAAGVLMEPDDWPYVVNITCFRHKVNPNVKSKACEKVISVGQTVITKHRNTRYYSCRVMAVTSQTFYEVMFDDGSFSRDTFPEDIVSRDCLKLGPPAEGEVVQVKWPDGKLYGAKYFGSNIAHMYQVEFEDGSQIAMKREDIYTLDEELPKRVKARFSTASDMRFEDTFYGADIIQGERKRQRVLSSRFKNEYVADPVYRTFLKSSFQKKCQKRQ
notes: Lysine demethylase KDM4C (GASC1), human, ORF amplified from pCMV-HA-GASC1; 1056 aa as printed; BiFC pair: one molecule stands for the YN and the YC conjugate; also called KDM4C-YN; KDM4C-YC; source: HEK293, transiently transfected, in cells; not shown: YN (Venus YFP residues 1-172) on one copy or YC (Venus YFP residues 155-238) on the other, C-terminal, kept

Assay in all cases: split reporter (BiFC, NanoBiT); BiFC (Venus YN + YC), IF microscopy of fixed HEK293 cells with quantitative image analysis (Imaris): mean reconstituted YFP fluorescence in each anti-YFP positive cell, >100 cells for each transfection
For data set [1], the target named is KDM4B with a C-terminal YN or YC tag (human) (UniProt O94953).
KDM4B with a C-terminal YN or YC tag (human), sequence (O94953 whole entry): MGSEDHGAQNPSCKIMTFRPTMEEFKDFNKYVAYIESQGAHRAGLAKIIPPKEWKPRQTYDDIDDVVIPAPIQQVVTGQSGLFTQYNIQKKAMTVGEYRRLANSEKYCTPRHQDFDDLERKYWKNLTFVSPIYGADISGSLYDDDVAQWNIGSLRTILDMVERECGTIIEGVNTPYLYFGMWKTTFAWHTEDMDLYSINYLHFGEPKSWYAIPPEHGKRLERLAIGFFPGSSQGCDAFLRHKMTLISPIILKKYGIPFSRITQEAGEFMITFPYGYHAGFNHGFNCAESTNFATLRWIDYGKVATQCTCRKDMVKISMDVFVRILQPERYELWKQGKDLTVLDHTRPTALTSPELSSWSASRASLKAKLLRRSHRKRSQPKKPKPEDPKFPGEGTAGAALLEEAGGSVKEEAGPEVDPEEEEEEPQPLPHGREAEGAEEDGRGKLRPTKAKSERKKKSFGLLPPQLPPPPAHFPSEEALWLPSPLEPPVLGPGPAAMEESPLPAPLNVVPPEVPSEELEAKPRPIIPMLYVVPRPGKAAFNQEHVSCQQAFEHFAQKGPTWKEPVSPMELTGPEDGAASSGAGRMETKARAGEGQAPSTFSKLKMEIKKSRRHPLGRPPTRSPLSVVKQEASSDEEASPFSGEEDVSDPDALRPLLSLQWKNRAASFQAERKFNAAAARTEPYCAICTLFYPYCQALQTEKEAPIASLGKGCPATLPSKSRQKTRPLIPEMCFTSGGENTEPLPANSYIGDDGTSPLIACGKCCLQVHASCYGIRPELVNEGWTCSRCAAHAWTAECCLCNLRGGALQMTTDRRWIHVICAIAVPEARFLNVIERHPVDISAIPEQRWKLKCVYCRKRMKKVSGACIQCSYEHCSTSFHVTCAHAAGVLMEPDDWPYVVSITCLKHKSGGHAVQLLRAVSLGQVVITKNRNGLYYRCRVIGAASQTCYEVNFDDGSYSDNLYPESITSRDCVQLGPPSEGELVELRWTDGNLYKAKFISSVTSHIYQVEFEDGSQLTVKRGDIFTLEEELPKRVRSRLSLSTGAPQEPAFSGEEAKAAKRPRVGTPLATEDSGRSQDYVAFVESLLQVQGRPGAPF
Data set [2] concerns the target B1.
Data set [3] concerns the molecule itself.

For the molecule “KDM4B with a C-terminal YN or YC tag (from UniProt O94953 1-1096) (enzyme)”, in data set [1], the YFP fluorescence (BiFC), Average (arbitrary units) amounted to 129; the YFP fluorescence (BiFC), Max (arbitrary units) came to 320; the YFP fluorescence (BiFC), Median (arbitrary units) was 120; the YFP fluorescence (BiFC), Min (arbitrary units) came out at 48. Further, in data set [2], the YFP fluorescence (BiFC), Average (arbitrary units) was found to be 170; the YFP fluorescence (BiFC), Max (arbitrary units) was found to be 356; the YFP fluorescence (BiFC), Median (arbitrary units) was found to be 146; the YFP fluorescence (BiFC), Min (arbitrary units) was determined as 50.

Regarding B1, in data set [3], the “YFP fluorescence (BiFC), Average” value came out at 741 arbitrary units; the “YFP fluorescence (BiFC), Max” value turned out to be 2890 arbitrary units; the “YFP fluorescence (BiFC), Median” value was 628 arbitrary units; the “YFP fluorescence (BiFC), Min” value came out at 204 arbitrary units.

B2: KDM4A with a C-terminal YN or YC tag (enzyme, human, UniProt O75164 1-1064, looked up)
chain: MASESETLNPSARIMTFYPTMEEFRNFSRYIAYIESQGAHRAGLAKVVPPKEWKPRASYDDIDDLVIPAPIQQLVTGQSGLFTQYNIQKKAMTVREFRKIANSDKYCTPRYSEFEELERKYWKNLTFNPPIYGADVNGTLYEKHVDEWNIGRLRTILDLVEKESGITIEGVNTPYLYFGMWKTSFAWHTEDMDLYSINYLHFGEPKSWYSVPPEHGKRLERLAKGFFPGSAQSCEAFLRHKMTLISPLMLKKYGIPFDKVTQEAGEFMITFPYGYHAGFNHGFNCAESTNFATRRWIEYGKQAVLCSCRKDMVKISMDVFVRKFQPERYKLWKAGKDNTVIDHTLPTPEAAEFLKESELPPRAGNEEECPEEDMEGVEDGEEGDLKTSLAKHRIGTKRHRVCLEIPQEVSQSELFPKEDLSSEQYEMTECPAALAPVRPTHSSVRQVEDGLTFPDYSDSTEVKFEELKNVKLEEEDEEEEQAAAALDLSVNPASVGGRLVFSGSKKKSSSSLGSGSSRDSISSDSETSEPLSCRAQGQTGVLTVHSYAKGDGRVTVGEPCTRKKGSAARSFSERELAEVADEYMFSLEENKKSKGRRQPLSKLPRHHPLVLQECVSDDETSEQLTPEEEAEETEAWAKPLSQLWQNRPPNFEAEKEFNETMAQQAPHCAVCMIFQTYHQVEFGGFNQNCGNASDLAPQKQRTKPLIPEMCFTSTGCSTDINLSTPYLEEDGTSILVSCKKCSVRVHASCYGVPPAKASEDWMCSRCSANALEEDCCLCSLRGGALQRANDDRWVHVSCAVAILEARFVNIAERSPVDVSKIPLPRFKLKCIFCKKRRKRTAGCCVQCSHGRCPTAFHVSCAQAAGVMMQPDDWPFVVFITCFRHKIPNLERAKGALQSITAGQKVISKHKNGRFYQCEVVRLTTETFYEVNFDDGSFSDNLYPEDIVSQDCLQFGPPAEGEVVQVRWTDGQVYGAKFVASHPIQMYQVEFEDGSQLVVKRDDVYTLDEELPKRVKSRLSVASDMRFNEIFTEKEVKQEKKRQRVINSRYREDYIEPALYRAIME
notes: Lysine demethylase KDM4A (JmjD2A), human, ORF amplified from pCMV-HA-JmjD2A; BiFC pair: one molecule stands for the YN and the YC conjugate; also called KDM4A-YN; KDM4A-YC; source: HEK293, transiently transfected, in cells; not shown: YN (Venus YFP residues 1-172) on one copy or YC (Venus YFP residues 155-238) on the other, C-terminal, kept
As for B2, in data set [1], the YFP fluorescence (BiFC), Average (arbitrary units) was found to be 110; the YFP fluorescence (BiFC), Max (arbitrary units) was found to be 309; the YFP fluorescence (BiFC), Median (arbitrary units) was determined as 104; the YFP fluorescence (BiFC), Min (arbitrary units) turned out to be 19. Moreover, in data set [2] (partners not purified), the “YFP fluorescence (BiFC), Average” value is 845 arbitrary units; the “YFP fluorescence (BiFC), Max” value was determined as 3080 arbitrary units; the “YFP fluorescence (BiFC), Median” value amounted to 717 arbitrary units; the “YFP fluorescence (BiFC), Min” value was determined as 320 arbitrary units. Moreover, in data set [3], the “YFP fluorescence (BiFC), Average” value was 943 arbitrary units; the “YFP fluorescence (BiFC), Max” value came out at 3140 arbitrary units; the “YFP fluorescence (BiFC), Median” value was found to be 726 arbitrary units; the “YFP fluorescence (BiFC), Min” value is 259 arbitrary units.
